Source: the Human Domainome abundance scans (Beltran et al. 2025)
± gives the uncertainty stated by the source.

B1: Dynamin-binding protein, residues 242 to 304; numbered along this chain, Q6XZF7 (parent)
chain: EEPGTYGVALYRFQALEPNELDFEVGDKIRILATLEDGWLEGSLKGRTGIFPYRFVKLCPDTR

Variants of: B1
Assay: abundance fitness (aPCA) (normalised: wild type 0, dead -1); higher = more abundant; growth selection in yeast, the domain comes from the species named
Conditions: Homo sapiens

EEPGTYGVALYRFQALEPNELDFEVGDKIRILATLEDGWLEGSLKGRTGIFPYRFQKLCPDTR [V56Q] and EEPGTYGVALYRFQALEPNELDFEVGDKIRILATLEDRWLEGSLKGRTGIFPYRFVKLCPDTR [G38R] are within error of each other in abundance fitness: -0.664 ± 0.22 for the first, -0.482 ± 0.09 for the second.

Going from EEPGTYGVALYRFQALEPNELDFEVGDKIRILATLEDGWLEGSLKGRTGIFPYRFVKLCPDAR [T62A] to EEPGTYGVALYRFQALEPNELDFEVGDKIRILATLEDGWLEGSLKGRTGIFPYRFVKLCPDFR [T62F], the abundance fitness falls from -0.022 ± 0.057 to -0.137 ± 0.057.

First: EEPGTYGVALYRFQALEPNELDFEVGDYIRILATLEDGWLEGSLKGRTGIFPYRFVKLCPDTR [K28Y]
Second: EEPGTYGVALYRFQALEPNELDFEVGDKIRILATLEDGWLEGSLKGRTGIFPERFVKLCPDTR [Y53E]
The abundance fitness of the first is lower: -0.519 ± 0.12 for the first, 0.282 ± 0.17 for the second.

First: EEPGTYGVALYRFQALEPNELDFEVGDKIRILATLEDGWLEGSLKGRTGIFPYRFVKLCMDTR [P60M]
Second: EEPGTYGVALYRFQALEPNELDFEVGDKIRILATLEDGWLEGSLKGRTGIFPYRFVKLCKDTR [P60K]
The abundance fitness of the first is lower: -0.317 ± 0.14 for the first, 0.054 ± 0.11 for the second.

Compared with EEPGTYGVALYRFQHLEPNELDFEVGDKIRILATLEDGWLEGSLKGRTGIFPYRFVKLCPDTR [A15H], EEPGTYGVALYRFQALEPNELDFELGDKIRILATLEDGWLEGSLKGRTGIFPYRFVKLCPDTR [V25L] is lower in abundance fitness: -0.472 ± 0.13 for the first, -0.933 ± 0.13 for the second.

Compared with EEPGTYGVALYRFQALEPNELDFEVGDKIRVLATLEDGWLEGSLKGRTGIFPYRFVKLCPDTR [I31V], EEPGTYGVALYRFQALEPNELDFEVGDKIRSLATLEDGWLEGSLKGRTGIFPYRFVKLCPDTR [I31S] is lower in abundance fitness: -0.463 ± 0.081 for the first, -0.879 ± 0.11 for the second.

First: EEPGTYGVALYRFQALQPNELDFEVGDKIRILATLEDGWLEGSLKGRTGIFPYRFVKLCPDTR [E17Q]
Second: EEPGTYGVALYRFQALEPNELDFEVGDKIRILATLEDGWLEGSLKGRTGIFPYRFVKQCPDTR [L58Q]
The abundance fitness of the first is higher: 0.189 ± 0.14 for the first, -0.656 ± 0.23 for the second.

EEPGTYGVALYRFQALEPNELDFEVGDKIRILATLEDGSLEGSLKGRTGIFPYRFVKLCPDTR [W39S] and EEPGTYGVALYRFQALEPNELDFEVGDKIRILATLEDGKLEGSLKGRTGIFPYRFVKLCPDTR [W39K] are within error of each other in abundance fitness: -0.56 ± 0.067 for the first, -0.395 ± 0.17 for the second.

EEPGTYGVALYRFQALEPNELDFEVGDKIRILATLEEGWLEGSLKGRTGIFPYRFVKLCPDTR [D37E] and EEPGTYGVALYRFNALEPNELDFEVGDKIRILATLEDGWLEGSLKGRTGIFPYRFVKLCPDTR [Q14N] are within error of each other in abundance fitness: -0.407 ± 0.16 for the first, -0.198 ± 0.065 for the second.

Compared with EEPGTYGVALYRFQALEPNELDFEVGDKIRILALLEDGWLEGSLKGRTGIFPYRFVKLCPDTR [T34L], EEPGTYGVALYRFQALEPNELDFEVGDKIRILATLEDGWLEGSLKGTTGIFPYRFVKLCPDTR [R47T] is lower in abundance fitness: -0.41 ± 0.071 for the first, -0.678 ± 0.16 for the second.

EEPGTYGVALYRFQALEPNELDFEVGAKIRILATLEDGWLEGSLKGRTGIFPYRFVKLCPDTR [D27A] and EEPGTYGVALYRFQALEPNELDFEVGNKIRILATLEDGWLEGSLKGRTGIFPYRFVKLCPDTR [D27N] are within error of each other in abundance fitness: -0.426 ± 0.096 for the first, -0.424 ± 0.086 for the second.

EEPGTWGVALYRFQALEPNELDFEVGDKIRILATLEDGWLEGSLKGRTGIFPYRFVKLCPDTR [Y6W] and EEPGTSGVALYRFQALEPNELDFEVGDKIRILATLEDGWLEGSLKGRTGIFPYRFVKLCPDTR [Y6S] are within error of each other in abundance fitness: -0.498 ± 0.27 for the first, -0.672 ± 0.073 for the second.

Compared with EEPGTYGVALYRFQALEPNELDFEVGDKIRILATLEDGWLEGSLKGRTGIFPYRAVKLCPDTR [F55A], EEPGTYGVALYRFQALEPNELDFEVGDKIRILATLEDGWLEGSLKGRTGIFPYRVVKLCPDTR [F55V] is lower in abundance fitness: -0.091 ± 0.04 for the first, -0.614 ± 0.043 for the second.

EEPGTYGVALYRFQAVEPNELDFEVGDKIRILATLEDGWLEGSLKGRTGIFPYRFVKLCPDTR [L16V] and EEPGTYGVALYRFQALEPNELDFEVGDKIRILATLEDGWLEGSLKGRTGIFPYRFVKLCPDTM [R63M] are within error of each other in abundance fitness: 0.117 ± 0.05 for the first, 0.049 ± 0.14 for the second.

EEPGTYGVALYRFQALEPNELDFEVGDKIRILATLEDGWLEGSLSGRTGIFPYRFVKLCPDTR [K45S] and EEPGTYGVALYRFQALEPNELDFEVGDKIRILATLEDGWLEGSLPGRTGIFPYRFVKLCPDTR [K45P] are within error of each other in abundance fitness: -0.296 ± 0.055 for the first, -0.429 ± 0.13 for the second.

First: EEPGTYGVALYRFQALEPNELDFEVGDKIRILATLEDGWLEGSDKGRTGIFPYRFVKLCPDTR [L44D]
Second: EEPGTYGVALYRFQALEPNELDFEVGDKIRILATLEDGWLEGSCKGRTGIFPYRFVKLCPDTR [L44C]
The abundance fitness of the first is lower: -0.385 ± 0.12 for the first, -0.159 ± 0.076 for the second.

First: EEPGTYGVALYRFQALEPNELDFEVGDKINILATLEDGWLEGSLKGRTGIFPYRFVKLCPDTR [R30N]
Second: EEPGTYGVALYRFQALEPNELDFEVGDKIRILATLKDGWLEGSLKGRTGIFPYRFVKLCPDTR [E36K]
The abundance fitness of the first is lower: -0.306 ± 0.069 for the first, -0.099 ± 0.12 for the second.

Compared with EEPGTYGVALYRFQALEPNELDFEVGDKIRILATLEDGWLEGSLKGRPGIFPYRFVKLCPDTR [T48P], EEPGTYGVALKRFQALEPNELDFEVGDKIRILATLEDGWLEGSLKGRTGIFPYRFVKLCPDTR [Y11K] is higher in abundance fitness: -0.867 ± 0.18 for the first, 0.343 ± 0.11 for the second.

EEPGTYGVALRRFQALEPNELDFEVGDKIRILATLEDGWLEGSLKGRTGIFPYRFVKLCPDTR [Y11R] and EELGTYGVALYRFQALEPNELDFEVGDKIRILATLEDGWLEGSLKGRTGIFPYRFVKLCPDTR [P3L] are within error of each other in abundance fitness: 0.206 ± 0.058 for the first, 0.108 ± 0.071 for the second.

EEPGTYGVALYRFQALEPNELDFEVGDKIRILATLEDGWLEGMLKGRTGIFPYRFVKLCPDTR [S43M] and ETPGTYGVALYRFQALEPNELDFEVGDKIRILATLEDGWLEGSLKGRTGIFPYRFVKLCPDTR [E2T] are within error of each other in abundance fitness: -0.127 ± 0.13 for the first, -0.024 ± 0.076 for the second.

Going from ECPGTYGVALYRFQALEPNELDFEVGDKIRILATLEDGWLEGSLKGRTGIFPYRFVKLCPDTR [E2C] to EHPGTYGVALYRFQALEPNELDFEVGDKIRILATLEDGWLEGSLKGRTGIFPYRFVKLCPDTR [E2H], the abundance fitness rises from -0.367 ± 0.082 to 0.127 ± 0.069.

With EEPGTYGVALYRFQALEPNELDFEVGDKIRILATLEDGWLEGSLKKRTGIFPYRFVKLCPDTR [G46K] the abundance fitness was -0.757 ± 0.28.
